Source: PMC9150345, “Trimeric complexes of Antp-TBP with TFIIEβ or Exd modulate transcriptional activity” (Hereditas, 2022)

T1: hTBPΔQ40, hTBP lacking the Poly-glutamine region (amino acids 50-102), fused to the N-terminal fragment of … (human, UniProt P20226 1-339, lacking the Poly-glutamine region (amino acids 50-102))
T1 construct: made by site-directed mutagenesis; source: HEK293, transfected, in living cells
T1 sequence (looked up): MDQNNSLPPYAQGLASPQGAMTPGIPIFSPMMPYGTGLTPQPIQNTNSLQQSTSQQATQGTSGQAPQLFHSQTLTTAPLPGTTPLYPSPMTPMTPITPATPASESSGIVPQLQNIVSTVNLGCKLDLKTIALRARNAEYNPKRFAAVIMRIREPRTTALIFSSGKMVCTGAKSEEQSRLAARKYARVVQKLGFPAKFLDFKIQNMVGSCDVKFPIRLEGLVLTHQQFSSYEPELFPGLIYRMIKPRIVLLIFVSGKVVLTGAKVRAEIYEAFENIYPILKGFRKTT


Tests used:
[1] = biological target: T2, TATA-binding protein (hTBP), fused to the N-terminal fragment of Venus (human, UniProt P20226 1-339); assay: split reporter (BiFC, NanoBiT); BiFC in HEK293 cells co-transfected with VC- and VN- constructs and pCAG-mCherry; read 48 h after transfection; interaction percent = green cells per 100 red cells; conditions: partners not purified
T2 construct: also called VNTBP; source: HEK293, transfected, in living cells

[2] = biological target: T1, hTBPΔQ40, hTBP lacking the …; assay: as above; conditions: partners not purified

Binder	percent of transfected cells showing BiFC [1] [%]	percent of transfected cells showing BiFC [2] [%]
AntpΔN, Antp lacking the N-terminal region (amino acids 1-269), fused to the C-terminal fragment of Venus (domain or fragment, Antennapedia (Antp) lacking the N-terminal region (amino acids 1-269); source: HEK293, transfected, in living cells) not shown	51	14
AntpΔHD, Antp without the YPWM motif and homeodomain (amino acids 245-363), fused to the C-terminal fragment of Venus (natural protein, Drosophila, UniProt P02833 1-378, looked up, Antennapedia (Antp) without the HD (amino acids 245-363); the text calls it the YPWM-HD deletion; source: HEK293, transfected, in living cells) MTMSTNNCESMTSYFTNSYMGADMHHGHYPGNGVTDLDAQQMHHYSQNANHQGNMPYPRFPPYDRMPYYNGQGMDQQQQHQVYSRPDSPSSQVGGVMPQAQTNGQLGVPQQQQQQQQQPSQNQQQQQAQQAPQQLQQQLPQVTQQVTHPQQQQQQPVVYASCKLQAAVGGLGMVPEGGSPPLVDQMSGHHMNAQMTLPHHMGHPQAQLGYTDVGVPDVTEVHQNHHNMGMYQQQSGVPPVGAPPSGGEGDEITPPNSPQ	74	–
AntpQ6, Antp with deletion of three glutamines (amino acids 150-152) and substitution of three glutamines to alanines (amino acids 153-155), fused to the … (natural protein, Antennapedia (Antp) with deletion of three glutamines (150-152) and three glutamines changed to alanines (153-155); source: HEK293, transfected, in living cells) not shown	63	–
AntpΔPolyQ, Antp with deletion of PolyQ regions (amino acids 66-136), fused to the C-terminal fragment of Venus (natural protein, Antennapedia (Antp) with deletion of PolyQ regions (amino acids 66-136); source: HEK293, transfected, in living cells) not shown	51	–
AntpQ9, Antp with deletion of the 9-polyQ stretch (amino acids 110-118), fused to the C-terminal fragment of Venus (natural protein, Antennapedia (Antp) with deletion of the 9-polyQ stretch (amino acids 110-118); source: HEK293, transfected, in living cells) not shown	57	–
Antennapedia (Antp), fused to the C-terminal fragment of Venus (natural protein, Antennapedia (Antp) Hox protein; also called VCAntp; Antp WT; source: HEK293, transfected, in living cells) not shown	77	41
AntpQ5, Antp with the 5-polyQ stretch mutagenized to alanines (amino acids 123-127), fused to the C-terminal fragment of Venus (natural protein, Antennapedia (Antp) in which the 5-polyQ stretch was mutagenized to alanines (amino acids 123-127); source: HEK293, transfected, in living cells) not shown	74	–
